In patent publication US20240150440A1 (LUMEN BIOSCIENCE, published 2024):

Assays:
[1] = biological target: T1, recombinant SARS-CoV-2 RBD with C-terminal AviTag (SARS-CoV-2, UniProt P0DTC2 319-541); assay: ELISA, competition with coated ACE2-Fc for RBD [Cont. 1]
[2] = biological target: T1, recombinant SARS-CoV-2 RBD with …; assay: BLI, biotinylated RBD on streptavidin biosensors [Cont. 1]
[3] = biological target: T2, SARS-CoV-2 spike protein on pseudotyped lentivirus (Wuhan Reference Pseudovirus) (SARS-CoV-2, UniProt P0DTC2 14-1273); assay: cell-based or functional assay
[4] = biological target: T1, recombinant SARS-CoV-2 RBD with …; assay: BLI, biotinylated RBD on streptavidin biosensors; BLD: below limit of detection
[5] = biological target: T2, SARS-CoV-2 spike protein on pseudotyped …; assay: cell-based or functional assay; remark: listed apart in the source
[6] = biological target: T2, SARS-CoV-2 spike protein on pseudotyped …; assay: cell-based or functional assay; remark: listed apart in the source
[7] = biological target: T1, recombinant SARS-CoV-2 RBD with …; assay: ELISA, competition with coated human ACE2-FC for RBD-AviTag
[8] = biological target: T1, recombinant SARS-CoV-2 RBD with …; assay: BLI, biotinylated RBD on streptavidin biosensors
[9] = biological target: T1, recombinant SARS-CoV-2 RBD with …; assay: BLI, biotinylated RBD on streptavidin biosensors, global 1:1 fit
[10] = biological target: T1, recombinant SARS-CoV-2 RBD with …; assay: ELISA, competition with coated ACE2-Fc for RBD
[11] = biological target: T1, recombinant SARS-CoV-2 RBD with …; assay: BLI, biotinylated RBD on streptavidin biosensors [Cont. 5]
[12] = biological target: T1, recombinant SARS-CoV-2 RBD with …; assay: ELISA, competition with coated ACE2-Fc for RBD [Cont. 5]
[13] = biological target: T2, SARS-CoV-2 spike protein on pseudotyped …; assay: cell-based or functional assay; remark: listed apart in the source
[14] = biological target: T1, recombinant SARS-CoV-2 RBD with …; assay: BLI, biotinylated RBD on streptavidin biosensors [Cont. 2]
[15] = biological target: T1, recombinant SARS-CoV-2 RBD with …; assay: ELISA, competition with coated ACE2-Fc for RBD [Cont. 2]
[16] = biological target: T1, recombinant SARS-CoV-2 RBD with …; assay: BLI, biotinylated RBD on streptavidin biosensors; OR: over-range [Cont. 3]
[17] = biological target: T1, recombinant SARS-CoV-2 RBD with …; assay: ELISA, competition with coated ACE2-Fc for RBD [Cont. 3]
[18] = biological target: T1, recombinant SARS-CoV-2 RBD with …; assay: BLI, biotinylated RBD on streptavidin biosensors; OR: over-range
[19] = biological target: T1, recombinant SARS-CoV-2 RBD with …; assay: BLI, biotinylated RBD on streptavidin biosensors [Cont. 3]

B1: dimeric VHH (VHH-5HVZ-MBP) R2C-G6 (VHH)
VHH: QVQLVESGGGLVQPGGSLRLSCAASGSIYKYSDVHWFRQAPGKAREAVALLTGAGTTIYGDSVKGRFTISRDNAKNTVYLQMNSLKPEDTAVYYCAAGQGFKATRTFDSWGQGTQVTVSS
With B1 the IC50 [1] was 3.9 nM, the Kd [2] was 35.7 nM and the “Pseudovirus inhibition IC50 [Cont. 1]” value [3] was 134 nM.

B2: PP802 MBP-R2A-C5-H6 (VHH)
VHH: QVQLVESGGGLVQPGGSLRLSCAASGTWGNIQYLSWFRQAPGKRREFVAAITPNNGTNYADSVKGRFTISRDNAKNTVYLQMNSLKPEDTAVYYCTAVLWYTTKEGPYDYWGQGTQVTVSS
notes: Form: Monomer
For B2, the Kd [4] was about 23 µM and the “infectivity % under 10 ug/mL VHH treatment” value (from here on “infectivity %”) [5] was 87.8%.

B3: MBP-5HVZ-R2A-C5-H6 (VHH, not shown: large carriers; small tags and cut ends)
VHH: QVQLVESGGGLVQPGGSLRLSCAASGTWGNIQYLSWFRQAPGKRREFVAAITPNNGTNYADSVKGRFTISRDNAKNTVYLQMNSLKPEDTAVYYCTAVLWYTTKEGPYDYWGQGTQVTVSS
Binder B3 has a Kd [4] of about 3.25 µM.

B4: dimeric VHH (VHH-5HVZ-MBP) R2A-F3 (VHH)
VHH: QVQLVESGGGLVQPGGSLRLSCAASGSITSINWMHWFRQAPGKDREGVASISQTGRGSYADSVKGRFTISRDNAKNTVYLQMNSLKPEDTAVYYCAAASRTGTPYNYWGQGTQVTVSS
B4 was tested, and the “Pseudovirus inhibition IC50” value [6] was 272 nM, the “IC50 (read off the curve)” value [7] was about 2 nM and the Kd [8] was 5.66 nM. It also gave a Kd [9] of 5.7 nM and an IC50 [10] of 1.6 nM.

B5: R5D-D4 (competition ELISA sample) (VHH)
VHH: QVQLVESGGGLVQPGGSLRLSCAASGSDFTINAMHWFRQAPGKQREFVATITSTSSTAYRDSVKGRFTISRDNAKNTVYLQMNSLKPEDTAVYYCAAFAVRDADTAGWTARDYWGQGTQVTVSS
With B5 the Kd [11] was 130 nM, the IC50 [12] was 48.1 nM and the “Pseudovirus inhibition IC50 [Cont. 5]” value [13] was 166 nM. For the same binder, the Kd [9] was 130 nM.

B6: PP819 MBP-R5A-C5-H6 (VHH)
VHH: QVQLVESGGGLVQPGGSLRLSCAASGDIFSINALHWFRQAPGKQREEVAAITSGGSTGYADSVKGRFTISRDNAKNTVYLQMNSLKPEDTAVYYCAAQQARGGLDSDYWGQGTQVTVSS
notes: Form: Monomer
For B6, the Kd [14] was 42.1 nM, the “infectivity %” value [5] was 54.1% and the IC50 [15] was 71.9 nM.

B7: PP828 MBP-R5C-B2-H6 (VHH)
VHH: QVQLVESGGGLVQPGGSLRLSCAASGSIFSLNWVHWFRQAPGKSREGVASINSGGHADYSDSVKGRFTISRDNAKNTVYLQMNSLKPEDTAVYYCAAGPYGAYNFNSWGQGTQVTVSS
notes: Form: Monomer
With B7 the Kd [16] was about 1370 nM, the IC50 [17] was 373 nM and the “infectivity %” value [5] was 73.4%.

B8: PP846 MBP-R5D-G6-H6 (VHH)
VHH: QVQLVESGGGLVQPGGSLRLSCAASGRILAANIVHWYRQAPGKNREGVAGITSGGSTYYADSVKGRFTISRDNAKNTVYLQMNSLKPEDTAVYYCAAKPLGSPDDFDYWGQGTQVTVSS
notes: Form: Monomer
With B8 the Kd [11] was 564 nM, the IC50 [12] was 7.5 nM and the “infectivity %” value [5] was 77.1%.

B9: PP822 MBP-R5A-E5-H6 (VHH)
VHH: QVQLVESGGGLVQPGGSLRLSCAASGYDFDILRMAWFRQAPGKEREMVAAITSAESVNYEDSVKGRFTISRDNAKNTVYLQMNSLKPEDTAVYYCATYDYTDDYGYASWGQGTQVTVSS
notes: Form: Monomer
B9 was tested, and the Kd [14] was 6.97 nM, the “infectivity %” value [5] was 71.6% and the IC50 [15] was 183 nM.

B10: PP807 MBP-R2C-B3-H6 (VHH)
VHH: QVQLVESGGGLVQPGGSLRLSCAASGTYASYETIAWYRQAPGKQREKVARITGAGSSFYADSVKGRFTISRDNAKNTVYLQMNSLKPEDTAVYYCNADSIPPALRAANTGYWGQGTQVTVSS
notes: Form: Monomer
With B10 the Kd [18] was about 950 nM, the “infectivity %” value [5] was 75.3% and the IC50 [10] was 148 nM.

B11: PP826 MBP-R5C-A2-H6 (VHH)
VHH: QVQLVESGGGLVQPGGSLRLSCAASGDIFSKNAMHWVRQAPGKQREFVAGIYSDGSSLYADSVKGRFTISRDNAKNTVYLQMNSLKPEDTAVYYCAALDYSARYRTWGQGTQVTVSS
notes: Form: Monomer
In the case of B11, the “infectivity %” value [5] is reported as 70.6% and the Kd [19] is reported as 420 nM.

B12: PP813 MBP-R2E-D2-H6 (VHH)
VHH: QVQLVESGGGLVQPGGSLRLSCAASGHQLSTNATHWFRQAPGKNREFVASIGSGSSSYYADSVKGRFTISRDNAKNTVYLQMNSLKPEDTAVYYCTALGGDELDGMTYDYWGQGTQVTVSS
notes: Form: Monomer
B12 was tested, and the Kd [2] was 100 nM and the “infectivity %” value [5] was 75.5%.
